According to patent US10561706B2, “Isolated polypeptide and compositions comprising same” (B. G. NEGEV TECHNOLOGIES AND APPLICATIONS LTD., AT …, priority 2015, dated 2020):

Assays:
SOD1^G93A [1] = biological target: T1, SOD1^G93A (Homo sapiens, UniProt P00441, G94A); experiment: ThT aggregation assay of SOD1^G93A with SOD1-derived peptides; assay type: biochemical; conditions: for ThT response / amyloid-like aggregation of SOD1^G93A on co-incubation with peptide: SOD1^G93A 50 μM, up to 64 h
T1 construct: 6His (N); made in house; host or cells: E. coli BL21
Method: Prior to the aggregation assay, all mixtures containing protein and/or peptide were filtered through a 0.22 μm Millex-GV (PVDF) syringe filter, 4 mm (Millipore, USA). SOD1^G93A (50 μM) or peptide (600 μM) were incubated in 200 μl of 20 mM […] buffer, pH 7.0, 0.1 M NaCl, 5 mM EDTA, 1 mM TCEP, and 1% DMF in the presence of 50 μM Thioflavin T (Sigma Aldrich, Israel) in a black 96-well plate at 37° C. with continuous shaking (set to fast) using a SpectraMax Paradigm (Molecular Devices) ELISA reader. The fluorescence (Exc. 440 nm; Em. 485 nm) was measured at 5 min intervals.
(§1) The effect of the binding of SOD1-derived peptides to misfolded SOD1 on kinetics of SOD1 aggregation was tested. The time course of SOD1^G93A aggregation was followed by monitoring the fluorescence of a thioflavin T (ThT) probe.

SOD1^G93A [2] = biological target: T1, SOD1^G93A; experiment: TEM analysis of SOD1^G93A aggregate morphology; assay type: biochemical; conditions: for morphology of SOD1^G93A aggregates by TEM versus SOD1^G93A alone: co-incubation with peptide, end of aggregation assay (FIG. 4B); for morphology of SOD1^G93A aggregates by TEM: 64 h at 37° C.
Method: Samples for TEM imaging were prepared as follows: at the end of the aggregation assay, 2.5 μl samples (diluted 5-fold) were deposited on a carbon-coated copper 300 mesh. After 1 min, the excess liquid was carefully blotted by a filter paper. Followed 1 min drying at the ambient temperature, 5 μl of 2% uranyl acetate was added. After 1 min, the excess of the salt solution was carefully removed with a filter paper. The imaging was performed using a Tecnai G2 12 BioTWIN (FEI) transmission electron microscope with an acceleration voltage of 120 kV. Depending on the aggregate size, different magnifications were used. The visible features were sensitive to the electron beam exposure, indicating their organic origin.
as §1

SOD1^WT [3] = biological target: T2, SOD1^WT (Homo sapiens, UniProt P00441); experiment: Peptide binding to fluorescently labeled SOD1^WT by microscale thermophoresis (MST); conditions: SOD1^WT 200 nM, 1.5 h at r.t., peptide 0-100 μM
T2 construct: 6His (N); made in house; host or cells: E. coli BL21
Source text: (§2) Peptides were synthesized by GL Biochem Ltd. (Shanghai, China). Peptide identity and purity (>90%) was confirmed by MS and HPLC analyses. For microscale thermophoresis (MST) analysis, the proteins (SOD1^WT and SOD1^G93A) were labeled with BLUE fluorescent dye NT-495-NHS (lysine chemistry) using a Monolith NT protein labeling kit Blue-NETS (Nano Temper Technologies, Munchen, Germany) at a protein (monomer):dye ratio of 1:3 as recommended by the manufacturer.
(§3) The assessment of peptide binding to the proteins was carried out using Monolith NT.115 (NanoTemper Technologies, Munchen, Germany). […] The binding data were analyzed by a non-linear regression using a logistic (three parameter) function implemented in Prism6 (GraphPad) program.
(§4) The binding of synthetic peptides to fluorescently labeled SOD1^WT or SOD1^G93A was assessed using a microscale thermophoresis technique (MST). Two overlapping peptides, designated SE-11 (SEQ ID NO: 6) (SOD1 aa. 90-109, […]) and SE-12 (SEQ ID NO: 7) (SOD1 aa. 106-125, […]), inflicted a specific, dose-dependent increase in the fluorescence of the target proteins (FIGS. 3A-D).

SOD1^G93A [4] = biological target: T1, SOD1^G93A; experiment: Peptide binding to fluorescently labeled SOD1^G93A by microscale thermophoresis (MST); conditions: SOD1^G93A 300 nM, 1.5 h at r.t., peptide 0-100 μM
Source text: as §2, §3, §4

SOD1^WT [5] = biological target: T2, SOD1^WT; experiment: Immunoprecipitation (B8H10 mAb) analysis of SOD1^WT misfolding; assay type: biochemical; conditions: peptide 600 μM, 4 or 37° C.; effect more prominent at 4° C.
Method: Purified recombinant SOD1^G93A or SOD1^WT proteins […] were incubated for 4 h in 50 mM Tris-HCl buffer, pH 7.4, 150 mM NaCl, 1 mM EDTA, in the presence or absence of peptide SE-12 (SEQ ID NO: 7) (600 μM) at 4 or 37° C. After incubation, 10 μg of SOD1 proteins were transferred into immunoprecipitation (IP) buffer (50 mM Tris-HCl, pH 7.4, 150 mM NaCl, 1 mM EDTA, and 0.5% Nonidet P-40 plus protease inhibitors) and incubated at 4° C. overnight with B8H10 monoclonal antibody (MediMabs) crosslinked to protein G beads (Dynabeads, Invitogen) using dimethyl pimelimidate (Pierce) according to the manufacturer's instructions. The beads were magnetically isolated and washed three times with IP buffer. Samples were eluted by boiling in 2× sample buffer. Both bound and unbound IP fractions were then separated by SDS-PAGE, transferred to a nitrocellulose membrane and probed with goat anti-SOD1 antibody (C-17; Santa Cruz Biotechnology).
To test the function of the exposed ^106LSGDHC^111 epitope on misfolding of other SOD1 molecules, the effect of the SE-12 (SEQ ID NO: 7) peptide on SOD1 misfolding was tested using immunoprecipitation with a mAb (B8H10) that specifically recognizes misfolded SOD1. […] The effect of the peptide was more prominent at 4° C., when the intrinsic rate of SOD1^WT misfolding is low, than at 37° C. […]

[6] = 1:12 SOD1^G93A:peptide molar ratio

T1 sequence (P00441 2-154 G94A): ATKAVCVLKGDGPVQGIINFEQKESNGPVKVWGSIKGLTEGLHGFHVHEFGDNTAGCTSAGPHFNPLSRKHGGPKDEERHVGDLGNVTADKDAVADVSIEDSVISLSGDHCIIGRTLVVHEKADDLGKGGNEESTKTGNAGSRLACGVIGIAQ
T2 sequence (P00441 whole entry): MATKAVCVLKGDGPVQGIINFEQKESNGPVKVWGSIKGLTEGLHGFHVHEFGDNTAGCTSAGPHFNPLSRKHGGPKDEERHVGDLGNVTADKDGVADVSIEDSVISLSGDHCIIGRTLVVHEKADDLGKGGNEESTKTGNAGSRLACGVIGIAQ

Row | Sequence | morphology of SOD1^G93A aggregates by TEM versus SOD1^G93A alone (SOD1^G93A [2]) | ThT response of SOD1^G93A (SOD1^G93A [1]; low peptide:SOD1 molar ratios, 37° C., continuous shaking) | ThT response of SOD1^G93A (SOD1^G93A [1]; peptide:SOD1 molar ratios higher than 3, compared to SOD1^G93A alone) | change in fluorescence of labeled SOD1^WT (peptide binding) (SOD1^WT [3]) | change in fluorescence of labeled SOD1^G93A (peptide binding) (SOD1^G93A [4]) | ThT response / amyloid-like aggregation of SOD1^G93A on co-incubation with peptide (SOD1^G93A [1]; 37° C., continuous shaking) | morphology of SOD1^G93A aggregates by TEM (SOD1^G93A [2]; [6]) | morphology of SOD1^G93A aggregates by TEM (SOD1^G93A [2]; low peptide:SOD1 molar ratio (1:0.2 SOD1^G93A:peptide)) | amount of misfolded SOD1^WT immunoprecipitated by B8H10 (SOD1^WT [5])
1 | IIGRTLVVHEKADD (listed as Homo sapiens) [SE-19, SOD1-derived peptide] | morphology was different |  |  |  |  | formation of amyloid-like (ThT-responsive) aggregates |  |  | 
2 | DKDGVADVSIEDSVISLSGD (listed as Homo sapiens) [SE-11, 20-mer peptide, SOD1 aa; 90-109] |  | inhibited the ThT response of SOD1^G93A | significantly enhanced ThT response | only with SOD1^G93A | effect was obtained |  | large spherulites (0.5-1.0 μm diameter) | suppressed the formation of characteristic fibril-like aggregates | 
3 | LSGDHCIIGRTLVVHEKADD (listed as Homo sapiens) [SE-12, 20-mer peptide, SOD1 aa; 106-125] |  |  |  | increase in fluorescence was observed | increase in fluorescence was observed | inhibited the SOD1^G93A-triggered ThT response and fibril formation in a dose-dependent manner | amorphous aggregates were detected by TEM |  | significantly increased the amount of accumulated misfolded species

Continued, in another order:

Row | morphology of SOD1^G93A aggregates by TEM versus SOD1^G93A alone (SOD1^G93A [2]) | ThT response of SOD1^G93A (SOD1^G93A [1]; low peptide:SOD1 molar ratios, 37° C., continuous shaking) | ThT response of SOD1^G93A (SOD1^G93A [1]; peptide:SOD1 molar ratios higher than 3, compared to SOD1^G93A alone) | change in fluorescence of labeled SOD1^WT (peptide binding) (SOD1^WT [3]) | change in fluorescence of labeled SOD1^G93A (peptide binding) (SOD1^G93A [4]) | Sequence | ThT response / amyloid-like aggregation of SOD1^G93A on co-incubation with peptide (SOD1^G93A [1]; 37° C., continuous shaking) | morphology of SOD1^G93A aggregates by TEM (SOD1^G93A [2]; [6]) | morphology of SOD1^G93A aggregates by TEM (SOD1^G93A [2]; low peptide:SOD1 molar ratio (1:0.2 SOD1^G93A:peptide)) | amount of misfolded SOD1^WT immunoprecipitated by B8H10 (SOD1^WT [5])
4 | different morphology (size) |  |  |  |  | EDSVISLSGDHCIIGRT (listed as Homo sapiens) [SE-21, SOD1-derived peptide] | did not prevent aggregation |  |  | 
5 | morphology was different |  |  |  |  | DKDGVADVSIEDSV (listed as Homo sapiens) [SE-20, SOD1-derived peptide] | formation of amyloid-like (ThT-responsive) aggregates |  |  | 
